Experimental data: paper PMC4044012, “Genome-Based Discovery of a Novel Membrane-Bound 1,6-Dihydroxyphenazine Prenyltransferase from a Marine Actinomycete” (PLoS ONE, 2014)

Assays:
Assay in all cases: prenyltransferase assay with E. coli membrane fraction, HPLC-UV product quantification
Mpz10 = molecular target: T1, Mpz10 (Streptomyces sp. SpC080624SC-11, UniProt A0A068CM06); assay type: biochemical; conditions: read-out: apparent Km; DMAPP co-substrate, 10 mM MgCl2, 50 mM Tris-HCl pH 8.1, 30°C
T1 construct: NcoI/EcoRI in pET-28a(+) (pPH23), apparently untagged; E. coli Rosetta2(DE3)pLysS membrane fraction
T1 sequence (A0A068CM06 1-331): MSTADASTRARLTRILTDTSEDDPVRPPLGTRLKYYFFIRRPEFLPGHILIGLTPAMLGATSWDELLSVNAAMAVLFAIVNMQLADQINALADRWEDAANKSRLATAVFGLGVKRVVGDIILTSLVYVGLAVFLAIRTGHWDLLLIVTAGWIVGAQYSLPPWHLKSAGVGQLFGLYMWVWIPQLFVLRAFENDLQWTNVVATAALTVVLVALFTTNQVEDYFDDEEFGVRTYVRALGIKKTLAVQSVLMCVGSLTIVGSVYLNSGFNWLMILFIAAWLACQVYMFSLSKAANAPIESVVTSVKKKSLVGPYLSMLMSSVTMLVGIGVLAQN

[1] = substrate: Oc1cccc2nc3c(O)cccc3nc12; assay type: biochemical, Streptomyces sp. SpC080624SC-11; conditions: 0.5 mM DMAPP constant, 10 mM MgCl2, 50 mM Tris-HCl pH 8.1, 30°C
[2] = substrate: CC(C)=CCOP(=O)(O)OP(=O)(O)O; assay type: biochemical, Streptomyces sp. SpC080624SC-11; conditions: 0.2 mM 1,6-dihydroxyphenazine constant, 10 mM MgCl2, 50 mM Tris-HCl pH 8.1, 30°C

Oc1cccc2nc3ccccc3nc12 [1-hydroxyphenazine]
Km (Mpz10): 9.8 µM

B1: Mpz10 (Streptomyces sp. SpC080624SC-11) (protein)
chain: T1 sequence (A0A068CM06 1-331)
notes: NcoI/EcoRI in pET-28a(+) (pPH23), apparently untagged; E. coli Rosetta2(DE3)pLysS membrane fraction
Km [1]: 53 µM
Km [2]: 153 µM
